Laboratory results published in patent US12077763B2, “RNA-based control of powdery mildew” (Greenlight Biosciences, Inc., priority 2021, dated 2024).

B1: GS3356 (nucleic acid)
sense: CUGGGUGAGUUUUUCGUAACGUCGCUACUUUAUUAACUUGAUCUGCCGUGGAUUUUGGUUGUCUUGUAUCAAUCAAAAGGAGAGGAAGCUUCGGAAACUUCAUUAAAGAUCUUAUGAUUGGCUCCUUUGAAUAGUCGGGCCUCUGAAAUAUAACAGCUUUUCCUUGGGAGGCAACAGUGUUAUCUACUCCUGAAGGGUUUCCAUGGAUACAUAUUUCUCCUACAUAAGCCCACAUAUUAAUGCGGCUUAUUUGGGUAUGUGCUUCUUCAAUGGGUUGGUCCUCAUGAGGCCCAGAAAGCGCUCUUACCUGUAAUAAGAGCGCAGCAGCUAGACACACAGUAAUAGAUGCA
antisense: UGCAUCUAUUACUGUGUGUCUAGCUGCUGCGCUCUUAUUACAGGUAAGAGCGCUUUCUGGGCCUCAUGAGGACCAACCCAUUGAAGAAGCACAUACCCAAAUAAGCCGCAUUAAUAUGUGGGCUUAUGUAGGAGAAAUAUGUAUCCAUGGAAACCCUUCAGGAGUAGAUAACACUGUUGCCUCCCAAGGAAAAGCUGUUAUAUUUCAGAGGCCCGACUAUUCAAAGGAGCCAAUCAUAAGAUCUUUAAUGAAGUUUCCGAAGCUUCCUCUCCUUUUGAUUGAUACAAGACAACCAAAAUCCACGGCAGAUCAAGUUAAUAAAGUAGCGACGUUACGAAAAACUCACCCAG
B2: GS1799: dsRNA trigger SEQ ID NO 193; gene target Transposon Tf2-6 polyprotein (nucleic acid)
DNA: GTAGCGAGGATGGACACTGGAGAACGGTTCGAAGTATACTTGACAAATTACGAAAAGCTGGGCTATATCTCGATATTGATAAATGTGAGTTTTTATGTAAAGAAGTCAAATATTTGGGGTTTATTGTGAAAGCTGGTAAAAGTGTGGCCGTTGATCAATCGAAGGTGAAGGCCATTCTGGAGTGGGAAGCGCCAACTACGGTTAGAGGGGTAAGATCATTTCTCGGATTCGCCAACTTCTATCGGTGCTTTATTAAGGGATTTTCCGACATTACATCACCCCTAGTTGCCCTGACGAAAAAAAAGGTGGAATGGCGATGGGGGCGTGACGAAAATGATGCGTTTGAAAGGCTCAAAGAAATATTCTCATCACAGCCTGTTTTAGCACAGTGGGATCCAGAGAAGGAAACAATTTTGGAAGCTGATAGTTCTGGCTTTGCAATTGGTGGTTGTCTCTCACAGGTGGATGAACACGGCCAAATAAGACCTGTGGCTTATTTCTCGAAGAAGTTAAATAGTGCCGAAGCTAATTACCCAATCCATGACAAAGAATTACACGCAATAGTCACGTGCTTAAAAGAATGGAAACCAGAGCTAAT
B3: GS3357 (nucleic acid)
sense: GAUCUGGUCGUGGUUUGCCGAAAAGAUUCUUCAUUCCUCCCGUUAUAAGAACGGUGAGUGAUAGUGAAAAGCUUAAUCCAAGCAAUCCAACGUGUAAUUCCCACAUUCUCCGAUGCCAUAUGGCAGAUCUAGGCGUUGACUUUGUAACCGUCGGUCCAGGAACAAGAACUAAGCAAAUAGCAAAAAUAACUAAUGCCGGAAUUAUAAAAGCAUAUAAUCCAAGCCAUCGUACCGAGACUUUUUCAUGUGUUUUAUAGGGAAAGCUGAUAUCUGGGUUCUCCAGCGAGAAGGGUCUUUUGUUUGGUACCCUCGAUCCAACAAAUAAUCCAAAAAAUGCACCAAAUAUAACUACCAGCCAAUCGACAACAUAUGAAAGUACUAGUUUUAAUGA
antisense: UCAUUAAAACUAGUACUUUCAUAUGUUGUCGAUUGGCUGGUAGUUAUAUUUGGUGCAUUUUUUGGAUUAUUUGUUGGAUCGAGGGUACCAAACAAAAGACCCUUCUCGCUGGAGAACCCAGAUAUCAGCUUUCCCUAUAAAACACAUGAAAAAGUCUCGGUACGAUGGCUUGGAUUAUAUGCUUUUAUAAUUCCGGCAUUAGUUAUUUUUGCUAUUUGCUUAGUUCUUGUUCCUGGACCGACGGUUACAAAGUCAACGCCUAGAUCUGCCAUAUGGCAUCGGAGAAUGUGGGAAUUACACGUUGGAUUGCUUGGAUUAAGCUUUUCACUAUCACUCACCGUUCUUAUAACGGGAGGAAUGAAGAAUCUUUUCGGCAAACCACGACCAGAUC
B4: GS3351 (nucleic acid)
sense: AAGAAACAGACAGAUGAUUUUAUCAUAUUUCAAGGUAUAUUUGAAUUUAGUGAAUCUAGUUUAAUAUAAUUUAAAUUUAUUCGAUUAUCACCAACCUAUGAAAAAAUCAUUUCAUCCCAAUUCCGACAUGAAUUUGUAGUGUCUGACAGGUUUGUUUAAAAACGAAGUGGUGUAAAGAACCAUCGAUUCUUUCCACUUAAAUAUCUCUCCUCUAAGGCUUUCUUAACCACUUUCUUGGCAUCCUCUCGCUGCGAUACUUCCUUGAAUGUUUCUGUAGAUAUUACGUUUUUAAGACCUUCUAAUUCGAGUGUGUAACGUGUUGGCAUAAUAUGAUUAUAAUUGAUAACUUUUAUAAAA
antisense: UUUUAUAAAAGUUAUCAAUUAUAAUCAUAUUAUGCCAACACGUUACACACUCGAAUUAGAAGGUCUUAAAAACGUAAUAUCUACAGAAACAUUCAAGGAAGUAUCGCAGCGAGAGGAUGCCAAGAAAGUGGUUAAGAAAGCCUUAGAGGAGAGAUAUUUAAGUGGAAAGAAUCGAUGGUUCUUUACACCACUUCGUUUUUAAACAAACCUGUCAGACACUACAAAUUCAUGUCGGAAUUGGGAUGAAAUGAUUUUUUCAUAGGUUGGUGAUAAUCGAAUAAAUUUAAAUUAUAUUAAACUAGAUUCACUAAAUUCAAAUAUACCUUGAAAUAUGAUAAAAUCAUCUGUCUGUUUCUU
B5: GS3358 (nucleic acid)
sense: UUGGUACUAUGGCCAGGGUCAAUUCAAUUCAAUUUUUUUCUAUCAAAUAAAAUUAAAUCAAAAUAGUUUUCAAUCCAAUCUAACCCAAUCUUAAUCUUAAAAUGUAACUUCAAACAUUGUGAUUCAAGUACUAAUCACACGAGAAACUAGCAACGUUUGAUCUCGCUUUUCGAUCUACUUUAGGUACUUGAUGAAAUUUUCAAAGAUAUUUUGUCAUAAAACCAGUCACUAAGCUUCUUUGCUAUAUAAUUGCACUACGCGACGUCAACAGAUGCUCUUUUCACACUCCUAGUUAUUAAAGCAAUUGAAACAUCUUCUAACUAUAUACAACUUGAAUAUAACUCCAGAUUUGAAUAUAUUCUCCACCAAAAUUUAAUUAGGUUUGCAAUAAAUU
antisense: AAUUUAUUGCAAACCUAAUUAAAUUUUGGUGGAGAAUAUAUUCAAAUCUGGAGUUAUAUUCAAGUUGUAUAUAGUUAGAAGAUGUUUCAAUUGCUUUAAUAACUAGGAGUGUGAAAAGAGCAUCUGUUGACGUCGCGUAGUGCAAUUAUAUAGCAAAGAAGCUUAGUGACUGGUUUUAUGACAAAAUAUCUUUGAAAAUUUCAUCAAGUACCUAAAGUAGAUCGAAAAGCGAGAUCAAACGUUGCUAGUUUCUCGUGUGAUUAGUACUUGAAUCACAAUGUUUGAAGUUACAUUUUAAGAUUAAGAUUGGGUUAGAUUGGAUUGAAAACUAUUUUGAUUUAAUUUUAUUUGAUAGAAAAAAAUUGAAUUGAAUUGACCCUGGCCAUAGUACCAA
B6: GS3360 (nucleic acid)
sense: CAGUGCUCUCGCAGCAGGCCAUUUAGUCAAGAGCCAUAUGGCACAUAACAGAAGUGCUCCUAUUACAAGAAGUAAUACACCUGCUCAGAUUAGCACACACCCAUCAAUGAUAUCAACAAAUAGCAUGAGAGAAAAAUAUUGAGAUUUGAAAUUCUAAUUGUGUAAAUGAGCUCAGCUAUAUUGAAAAUAAAUUGGUAAUCUAAUAUAGAGGUAGAACUAGUUCGAUUUUUAUACUCAUUAAAAAAAGGAACUAAUAUUGGUAAAGGGUUAAGCUAUGAAAUUAGCUAUCCUUUUUUUUCCUAUUUAUUGAAAA
antisense: UUUUCAAUAAAUAGGAAAAAAAAGGAUAGCUAAUUUCAUAGCUUAACCCUUUACCAAUAUUAGUUCCUUUUUUUAAUGAGUAUAAAAAUCGAACUAGUUCUACCUCUAUAUUAGAUUACCAAUUUAUUUUCAAUAUAGCUGAGCUCAUUUACACAAUUAGAAUUUCAAAUCUCAAUAUUUUUCUCUCAUGCUAUUUGUUGAUAUCAUUGAUGGGUGUGUGCUAAUCUGAGCAGGUGUAUUACUUCUUGUAAUAGGAGCACUUCUGUUAUGUGCCAUAUGGCUCUUGACUAAAUGGCCUGCUGCGAGAGCACUG
B7: GS3352 (nucleic acid)
sense: UGUAGAGGUGAAGUAGGUGAAAGUUGAUUUGGCGAUGGUAGAGAUGAGUUACUAUUACUGAUAGAAGGUAAAUUUGAGUAAGAUUGCAAAUUUCUAUCAGACGCAGCUGACUGAUCAAGAGUUUGCUCUAAUAAGGAUCUUUCAUGAGCUGAAUGCGCAUAUGUCGGUGACAAAUUUUUGGGAUGAUCGAUAAAGAAUUUUUUGGUUGAAUAGUUGCGAGAGAUUCCAGGUUGUAUUGCAGGUGAUGAAGAAGCUGGUGAAGAAAUGUUGCUUGAGUUGUCAAAAUUGCUACUGUUUGAACCAUUUGUUUUUGCGGAAGGAUACGGGAGUGGUUUACCUUCUUUUGCCAUCCGAAAAACUGGAAGUAAAUCCUCUCUAAGUCGUGUAUAUUCGAAUGU
antisense: ACAUUCGAAUAUACACGACUUAGAGAGGAUUUACUUCCAGUUUUUCGGAUGGCAAAAGAAGGUAAACCACUCCCGUAUCCUUCCGCAAAAACAAAUGGUUCAAACAGUAGCAAUUUUGACAACUCAAGCAACAUUUCUUCACCAGCUUCUUCAUCACCUGCAAUACAACCUGGAAUCUCUCGCAACUAUUCAACCAAAAAAUUCUUUAUCGAUCAUCCCAAAAAUUUGUCACCGACAUAUGCGCAUUCAGCUCAUGAAAGAUCCUUAUUAGAGCAAACUCUUGAUCAGUCAGCUGCGUCUGAUAGAAAUUUGCAAUCUUACUCAAAUUUACCUUCUAUCAGUAAUAGUAACUCAUCUCUACCAUCGCCAAAUCAACUUUCACCUACUUCACCUCUACA
B8: GS3359 (nucleic acid)
sense: UUGAGAACAUGACCGAGGCUACUCUAAUCUUAGAUAUGUUUCUCAACAACGAGGGAGCCUUUAACUAUCCUCACAUUUCCUUUCGCAAAAAUUUCCACCCUUUCAACUUCUCUAAAAACAAUUGAUUUGCUUAGACCAUAAGAAUAUUUCAAUAUGAUUAAAACUGAAGCUAAUGGUGAAGGAUUUGAUAUUUCUAUUCCAGAGGUAUCAGUAACUGAGGAACGAAAGCCAUUUGUGCAAAAGGAAGGAUAUCUCAAAUUAAAGCAAGCAGGAACUGCAAGAGCGAAUGAAGCCGCUUCAUACGAAGCUCCACGUGGCACUGUAAAAGGAGAUUACGCAUACCGUCAUCGACAUCAGACAGUACUCCAACAGCAUAUAGCCUUUUUUGAUCAUGAUAA
antisense: UUAUCAUGAUCAAAAAAGGCUAUAUGCUGUUGGAGUACUGUCUGAUGUCGAUGACGGUAUGCGUAAUCUCCUUUUACAGUGCCACGUGGAGCUUCGUAUGAAGCGGCUUCAUUCGCUCUUGCAGUUCCUGCUUGCUUUAAUUUGAGAUAUCCUUCCUUUUGCACAAAUGGCUUUCGUUCCUCAGUUACUGAUACCUCUGGAAUAGAAAUAUCAAAUCCUUCACCAUUAGCUUCAGUUUUAAUCAUAUUGAAAUAUUCUUAUGGUCUAAGCAAAUCAAUUGUUUUUAGAGAAGUUGAAAGGGUGGAAAUUUUUGCGAAAGGAAAUGUGAGGAUAGUUAAAGGCUCCCUCGUUGUUGAGAAACAUAUCUAAGAUUAGAGUAGCCUCGGUCAUGUUCUCAA

System: E. necator
Experiment: Leaf disc assay, dry inoculum (settling tower), decrease in disease severity / hyphal growth (Example 2)
Settings: decrease in disease severity (hyphal growth) relative to untreated control, value ± SE; for % decrease =/− SE TP1: time point 1 (untreated control hyphal growth ≥50%); for % decrease =/− SE TP2: time point 2

Molecule | % decrease =/− SE TP1 | % decrease =/− SE TP2
B1 | 5 ± 5% | –
B2 | 16 ± 5% | 8 ± 6%
B3 | 9 ± 6% | 7 ± 6%
B4 | 4 ± 7% | –
B5 | 6 ± 4% | –
B6 | 36 ± 4% | 30 ± 5%
B7 | 6 ± 4% | –
B8 | 14 ± 4% | –
